The text below walks through data of the nanobody polyreactivity screen of Harvey et al. (2022).

A short description of this series: yeast display, Sf9 membrane polyspecificity reagent, FACS + sequencing; frameworks hold sequencing errors. In outline: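 Nanobodies from a synthetic yeast display library (Saccharomyces cerevisiae BJ5465), induced 36–48 hours with galactose, were stained 1 hour at 4 °C with 10% biotinylated, detergent-solubilized Sf9 membrane reagent, enriched on streptavidin microbeads, then FACS-sorted. Anti-HA (expression) and streptavidin (reagent binding) fluorescence set low and high (top ~1%) gates. Polyreactivity labels come from the gate of origin. Genes were colony-PCR amplified, MiSeq 2 × 250 sequenced and filtered by CDR length.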
Take “QVQLVESAVGLVKAGGSHRLSCAASASTFYLNARGWYRQAPGKEREFVAAIRGGGTSKRYADSVKGRFTISRDNATNTVYLQMNILKPEDSAVYYCAAGRGGHRYKVGYWGLGTQVTVSS”: the “polyreactivity (PSR sort gate)” value is given as “high polyreactivity”.

Take “QVQLVESGGGLVQAGGSLRLSCAASGITFILYDMGWYRQAPGKERELVAGITSGDGDSTYYADSVKGRFTISRDNAKNTVYLQMNSLKPEDTAVYYCAADFTVGYYREYYYWGQGTQVTVSS”: the “polyreactivity (PSR sort gate)” value was “low polyreactivity”.

For “QVQLVESGGGLVQAGGSLRLSCAASGSIFYTYVMGWYRQAPGKERELVAAISASGVRTYYADSVKGRFTISRDNAKNTVYLQMNSLKPEDTAVYYCAADRQRADYYWGQGTQVTVSS”, the “polyreactivity (PSR sort gate)” value is reported as “high polyreactivity”.

For “QVQLVDSGGGLVPSGGSLRISCAASGRIFYPYAMGWYRQAPGKEREVVATITRTGSTYYADSVKGRFTISRDNAMNTVYLQMNSLKPEDTAVYYCNAGIYRPRVDYWGQGTQVTVSS”, the “polyreactivity (PSR sort gate)” value is given as “high polyreactivity”.

“QVQIVESGGGLVQAGGSLRLSCAASGSIFTPYAMGWYRQATGKERELVADIDASGGGTYADSVKGRFTISRDNANNTVYLQMNSLKPEDTAVYYCNTDPYSSAWYNYDYWGQGTQVTVSS”: the “polyreactivity (PSR sort gate)” value is recorded as “low polyreactivity”.

In the case of “QVQLVESGGGLVQAGGSLRLSCAAAARTFPYNAMGWYRQAPGQERELVATISRRTGTTYYADSVKGRFTISRDNAKNTVYLQMNSLKPEDTAVYFCAATGFGLRRLFRGDYWGQGTQVTVSS”, the “polyreactivity (PSR sort gate)” value is “high polyreactivity”.

Consider “QVQLVESGAGLVQAGGSLRLSCAASGSIFDHYAMGWYRQAPGKERELVAAISSSGGSTYYADSVKGRFTISRDNAKNTVYLQMNSLKPEDTAVYSCAARAGYTRYGYWGQGTQVTVSS”, for which the “polyreactivity (PSR sort gate)” value was “high polyreactivity”.

Take “QVQLQESGGGLVQAGGSLRLSCAASGTITVLYKMGWFRQAPGKEREFVASINYGTSTYYADSVKGRFTVSRDSAKNTVYLQMNSRKPEDTAVYYCAAAYRWQDVYRYWGQGTQVTVSS”: the “polyreactivity (PSR sort gate)” value was “low polyreactivity”.

With “QVQLVESGGGLVQAGGSLRLSFAASGSIFSTYAMVWYRQAPGKERELVAAISTRGGRTYYADSLKGRFTLSRDNAKNTVYLQMNSLKPEDTAVYYCAADRYKTIGQWYYYWGQGTQVTVSS”, the “polyreactivity (PSR sort gate)” value is listed as “high polyreactivity”.

With “QVQLVESGGGLVQAGGSLRLSCAASGRTLIWYTMGWYRQAPGKERELVAAITSGGSTYYADSVKGRFTISRDNAKNTVYLRMNSLKPEDTAVYYCAAVYPAAPRAYGYWGQGTQVTVSS”, the “polyreactivity (PSR sort gate)” value is listed as “low polyreactivity”.

As for “QVQLVESGGGLVQAGGRLRLSCAASGSTFARNAMGWYRQAPGKERELVPAISRGGSTYYADSVKGRFTISRDNAKNTVYLEMNSLKPEDTAVYYCAVYNFHYGYVWYPYDYWGQGTEVTVSS”, the “polyreactivity (PSR sort gate)” value was “high polyreactivity”.

For the sequence “QVQLQESGGGLVQAGGSLRLSCAASGSSSILHSMGWYRQAPRKERELVAGINWGATTYYADSVKGRLTTSRDYAKNTVYLQMNSLKPEDTAVYYCAVPTYYPYPLLYWGQGTQVTVSS”, the “polyreactivity (PSR sort gate)” value is reported as “low polyreactivity”.

For “QVQLVESGGGLVQAGGSLRLSCAASGNTFAQYGMGWYRQAPGKEREFVAAITRRGGSTYYADSVKGRFTISRDNAKNTVYLQMNSLKPEDTAVFYCAAGHYRRRYPSYGLQEYDYWGQGTQVTVSS”, the “polyreactivity (PSR sort gate)” value is “high polyreactivity”.

“QVQLVESGGGLVQAGGSLRLSCAASGSTFFNYAMGWYRQAPGKERELVAAISSSGGRTYYADSVKGRFTISRDNAKNTVYLQMNSLKPEDTAVYYCAASGRKNGMNYWGQGTQVTVSS”: the “polyreactivity (PSR sort gate)” value is “high polyreactivity”.

As for “QVQLVESGGGLVQAGGSLRLSCAASGSIFPVNAMGWYRQAPGKEREWVAAISVSGGRTYYADSVKGRFTISRDNAKNTVYLQMNSLKPEDTAVYYCNKLLARGYASGYDYWGQGTQVTVSS”, the “polyreactivity (PSR sort gate)” value was “high polyreactivity”.

“QVQLVESGGGLVQAGGSLRLSCAASGYIFAGNAMGWYRQAPGKERELVAVITRGGRTYYADSVKGRFTISRDNAKNTVYLQMNSLKPEDTAVYYCAARYPYRGWGQGTQVTVSS”: the “polyreactivity (PSR sort gate)” value was “high polyreactivity”.

“QVQLVESGVGLVQAGGSLRLSCAASGRTFGSNAMGWYRQAPGKERELVAAISRVGSTYYADSVKGRFTISRDNAKNTVYLQMNSLKPEDTAVYYCPYDYWGQGTQVTVSS”: the “polyreactivity (PSR sort gate)” value was “low polyreactivity”.
